From PMC11607802

Molecular target: Butelase AY (Butelase 1 V237A/T238Y), zymogenic form before activation (Clitoria ternatea)
Experiment: SEC

stoichiometry N: 2
Substance: Butelase AY (Butelase 1 V237A/T238Y), zymogenic form before activation (enzyme)
